According to the domain aggregation screens of Martell et al. (2025):

experiment: soluble fraction after stress (log2 fold change); higher = more stays soluble; pooled small domains, quantitative proteomics; details: stress: 50 degC
Procedure, shortened: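 After stress at 50°C, the amount of each protein still soluble was measured. This was done on pooled custom libraries of small protein domains, using high-throughput quantitative proteomics. The figure given is a base-two log fold change and stands for aggregation propensity, with higher values meaning more protein stays in solution.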

Sequence	soluble fraction (log2)
HMDSNPLSEREQEVLQLVAKGASNQTIAEQLFLSNGTIRNYMTAIFNKLNANNRTDAVRIARENGW	-0.144
HMTNTWNNIVERNDLFFKKFTNTPFNGKIETYWPNGNLKETGIITDGKKDNLWEYYYENGNPKEVEF	-0.397
HMDGVNRDKIEYRLDDLYYLKGSDAPYTGKVFEEWSGQQRVETNYIDGKLDGLSESWHENGQKASEVNY	0.345
HMRDYKTALQEWVQRTPGQPIAYRLVDELGPDHARVFVMEVTVGGQSAGQGRGRTKKEAEQLAARAALEKL	-0.0907
HMSGEVLTAVVPETASGERLDKVLPQIFPPYSRSQLQTWLKEGRVTLDREIPAARLAVIGGETLRLEVPSL	-0.145
HMPDFLAELAARMERDAVTEAQIRQVVAQKGHYPEEVSPAQYHPDFFRQWLFPHWEKIVDVIRSSPEYTP	-0.0503
HMDRENNITAGREILEKELSRLALNMKMVNLQDYAARFNVKHSDDILAGIGAGDIRPAHIVNAIAEKLT	0.144
HMISQLRGKVLGTDRDALVIDVGGVGFRVSATAGARALAGQSGNEARLFTEMVVREDSIDLFGF	0.217
HMPDLQKAIDDLLQVVDKRLNTSFESILNEVNSEKEAVAFFLALLEAVRWGFVKASQSDEGIKIEK	-0.00989
HMKPALFSADELNRLYRYGLSLTGERDRAYDLLQTALEKYLRQSQAPANAMRYVRKIMHNQFIDDYR	-1.13
HMAPLADQIVDLLKEHDGFLPLHDNSSPEDIRATVGTSKKAFKQAIGGLFREKRIVIGPTGIRLIS	-0.378
HMNGKTIEVPDITEKSIAEAQLILNQKKLRYNVVDSTRFDPAYLPFSVLTQEPEAGDEVKKNRTIYITLNP	-0.0871
HMTKGFSIQDISLSKSTMTFLQQNKITDLASLLSMSKSQIEGMKGFKPKMIQEIEKNLDKVGLVLAQD	0.176
HMNDIDRFIEALIEQDTLPGTNSRINEDVISEMKMMTSVEDIKAYAIATVGLTGGQVNNALINSGL	-0.0823
HMKVIAEESYRILVDAIEKLPPQMKSIMQLALEGKSNPEIAETLNISGETVHSQKKIAYRKLRVYLKD	-1.17
HMVDPRWETPDENLAEQIKSVMPVMWVYDREAKSFVERPAIDFSFSIFERTTLYIYDKDGNEIGFAR	-0.028
HMVLVEEYDTKDSASTFKIGYYARYNTKYGTPSKVGSYADNQRSGIWTFYTDSLKTYFKYNYSTGLIL	0.115
HMNRREFQFSEGSSNKFWSIELRDQSFIVHYGKIGTNGQAQEKTFATADAAKKEHDKLIAEKTKKGYVEVQ	-0.392
HMKVGEIIKAKREELKIPLVNFAKELDISQGYLSQIENGIKTNPNLDIILKIIHRLDIDLAMLL	-1.32
HMSSLSGVRRTLLDSLGMPPDASDEELADRREELRGSLDTAPQARRKWIEQQLARIDAITALDASG	-0.035
HMGIPIEAYHESLHRHYIDLWELLDTGKETLIDAEGNEVDKIHLLNAIRFNVNGMLHELLKE	-1.76
HMDLKTNSQLINELEKKIKRPFDREIKNYLNKNLSTDRMISNNEIDKIILFYSGNNEIPNIEKISLILNDN	-0.112
HMQGVNLTETEKNFIAQVLSPLLKQGQSLYQIRTNHPEIKLSVKTLYTYIESGIFKESGINNFSLRRQ	0.0431
HMAISSADRIVAELRTWISGASPGTQLPSSRTLAARYGASPVTVQKALHTLAGMGLVEARPGAGTFVRRQS	-0.189
HMPSSQQVMRRLATVGPDKTLEELQRQHDAHLRKYGEFNDFRGERQQMRQEMERIKEAKQGTGPYAHLMG	0.0233

Sequence	soluble fraction (log2)
HMGMEENLLKERKQILMDIMKSKEYQPMKVKELAMVLNVPKEDREELRYVLNELMNEGKIVESKKGKFSIA	0.177
HMPATIEGIRLYLSSGLIKGVGEEMASRIVKAFGTDTIRVLDEEPERLLKVRGVGKKSLDRIRTSWAEH	-0.386
HMKNLDILTPKEIEVLNLVAKGYSNSKISKELDIAEVTVKKHIGSMFQKLDVKDRLSLALIL	-0.118
HMESGFEAVREVARHGSFANAAKALGVSGPAVSRQVKSLEERLGLVFFHRTTRMVTLTEAGQQLVDTLD	-0.00498
HMDSDIGQQLKILLTVGTFMPSTELKAIAQQFGMKKPTDLKEWVELESDTQRIKGNPTKGYWINEINDL	-0.562
HMQAPAFDYSKVQEGVTVNHKIFGDGTVSWIDKARKYIRVQFSVGEKMFTMETAFVQGFLSL	-0.348
HMETLKEVPNLKGQQQEVAKQLLINAGLGVGKINIIEDSTIADGEVVTQSILPNTKVKKDTYVGFTVNKAP	0.0969
HMPVSVAEQKQILAEALQERGHATFRELIENADNRMIVVGRFLALLELYRDGTVRFEQERALGELTIHWEE	-0.318
HMKLTALWTANPKISAPIYSEPSTQSKTLGRIYQGASVKVYSFDPEWAYINSSGVVGYVLRRHLE	-0.323
HMLEIDPPVDEISVSRKAFYEAAGYKVNPYTHIPPRYRKEFEEHSFVVMSWPRELPEETYRKFDRYLRDV	0.103
HMRKIEDVLRLHAQGMSTRRIALATGVGKTTVIEYLRRAAVAGLSWPLPEGLDEEALERRVFPPPP	-1.45
HMGKEWPTPDNVEEWKKLVKKARLWPIQADQAQSEETRERNRKKWELFVAYAKRFGYRAGIGETGKPFVNN	-0.443
HMHFDQILAHAMDERGMNAVQLASLTGLSSGAISRYLAGDRQPTVYSIQQIAKALGVSADYLVG	-0.884
HMIRMPNLIGLSVRSAEQQLVIAGLKKGIVHQVNDPRLKEVIDMQALGHKITAGSSIPKGTEVDLYIGNGT	0.146
HMLTTIRKATVNDKTRIMEIYAYARQFMAEHGNPNQWKNNNPSEETIDNDIAKQEMYVIETDGEVHAVFY	-1.44
HMGTDGLKDIVLEILKEHPNQLAELIDGKQKVLGFLVGQVMKKTNGAANPKEVNEIIQGEIKK	-0.0707
HMDEFTIILEDAGSQKIAVIKEVRVLNSSLGLKEAKDLVDATPATIMEKADKATADKAKAAFEAAGAKVTI	-0.22
HMKTTKESLLEYIQREVFTDSIHKEGLSTNEIADAFQIQRSNVSSLLNTLVKEGKLEKTTGRPVLYRIPEK	0.0655
HMGGVTVQNRETHVNSTVNVRSEQTTESERVALAYQGDAITQIESYENGWSKVEYKGLSGYVMTEYL	-0.181
HMDMNVQNYRGLSLDRAKKLISDLGLKYEVVGTGDSVVKQVPSSGSRMSKENGRIILYTENVEDA	0.00608
HMQYDSYTVEEPAKLLDWLLAHLRQSRTKIKATLQGHGIKVNGKTVTQFDYPLEPGMKIRVSLTK	0.159
HMKPSNRSYPTALRMEVIGIIRERYADFGPTLAGEKLAELHGIHLGRETIRQWMMAAGLWKDRR	-0.825
HMGMSMNEFLNNRLEQLAVEAVDKSSLGEEIFFYAEPATINLFKDAVDEDEYKVVFPVLKSIIEVEQKLSR	-1.03
HMDDFTEVLLQYLKDHDGYSSIHDKTDAETIYNTFGVSKKTFKKAVGDLYKKRLIVLEEEGIRLLG	-0.0665
HMKKQLKSEAVADELRRKILSGGFPDKRLPRKDELTEYFQVSQKTVEAALKMLTAEGLIRGVKGTGIFVNG	-0.0396

Sequence	soluble fraction (log2)
HMKVNQFEVEGNQRYSTEEIAKASGVSKGDNLFLVNKTETARKLLDELAYVRSVNIKRKLPDTLVITVAE	0.399
HMEGPALKVWKARYLRAAILEQLLSDRWDDRGGQPIRVVVNEPTNSLLIRIPRHLWPEAEKLLQELDQR	-1.02
HMVNSADLAAKPFIDLLVSTRQQLREAKQYDLADTIRDELTNHGITIEDKPQGSEWQYEFNPNS	0.112
HMGVRDIRIFERNNSFFVNAEIRGEAQLSVPITRTDYQLFKENKIDALSLVEKYYAEELNASNEMK	-0.164
HMAKVSVNIILKDGVDQTTFVNDVTSNTEVDLKNQLISLPQMVVLSVEEDYINTLKSHSSISILELDE	-0.00499
HMGKINEIVANNIAILRKKNRLSLEELGKLSGVSKSMLALIEKGDGNPTLGILWKIANGLGVPFDELTRRP	-0.0928
HMQWLDSIRSRLRVGQTISYFEPRENASSSGLIIELRRKRVLVLEIATQKRWLIEYAAINVDG	-0.373
HMRLNIRTKNNYSYYTIIKDYTNLNGKRTTTIFEKLGNQQQVEERFGKVNTIENIKKYIEELNNE	-1.23
HMGRRSKAMLSSALDAVPGLGEMRRKALISQFGSLKKLRGATPEEIAAVPGIGPKLAAAVHEAVSG	0.0505
HMGLAGVQSDVKVSFDGDLLVVTSDIARSFNLFAVDGRLIRSVNLIAGRNEIRGLERGFYLAEKQKIFV	-2.07
HMAAVAPPVLERIASDLATRFAGTLSPETVDRYVRESYHLLAERAGITRYLPSLTARFAGDRLDA	0.0481
HMLTKGDRQSIRDSIIYMVGNAPRTLDYIVAESRYSEEDVIEAVRSLLSSHILSIDDSDMISLTRK	-0.448
HMAEWLLVQLTNGNWFYGEVIEKTDATIVLNTDILGKVSIQKLDIRRSISGPLTAAKRQEIEDSERAKD	-0.0179
HMLHVRSALMSELDGIEGIGEKRKRLLFDAFITRDAIAAATLEQLMAVKGMNRPSAEAVHKHFHG	-0.53
HMVISAKRMQDRRDSILDAAREAFARAGFEGTSIADIARRAGVSDGLVYRYFASKRDLLNAVLTA	-0.83
HMLGRPDMSPIPEGSRNNDLHAWGFGRLANHPDNKRQIEADFFERGRISGLGDAEIRASWNSILRQLGHQ	0.14
HMWVETITTKAGITKYKFQERYTDTYSGKTKRVSVTYTSNSRQAYKLAQAELQKKIDLATNTD	-0.849
HMKQESSEDLLNEVIDKVIDSNPDEKNRLLDGELKLVSFFMGQVMKETKGKANPGVINGLIKKKFNI	-0.675
HMTEKPTREAHILDQLARDGGVLVAALSRELGVSEVTIRSDLRDLEAAGLLQRTHGGAQASSFQTVL	-0.0142
HMHNSQTIIDNIKRIANEQNISLSKLAVISGLGKNTITSMTAKTNIKIETLTAIAKSLNVSIHDLTGE	-0.0839
HMSPSLVEAMRLRMYEMGLNQAKLSELLGVSPSRVSDYLTGRSEPTLKVARDISRKLNIDASIVLG	-1.07
HMQRDTIAISAIPTAIKTYLSSTYPTDTLVHAFVNKDQSIVVISKNIDFYATSFSTANAFIKRIQLPA	-1.03
HMLRDTTLLHIDSIVRDGSTAMANITVRDEGTDLEFPLQLRMERGDMGWQVVRIVNYRAYLEAVQKA	-0.336
HMNNGTDGLTTRLRRAILAGQYTFKERLPSERQLAEHFNTSRGTVRKVLQRLTTMNLVEQRAGSGTYVRYG	-0.2
HMKASEMKKGQTIKIDGVLYVIVDFQHVKLSKGGAVYQTKLRNLAAGGIRDIRIRAEEVLEDA	-0.311
